In publication PMC6499997, “SGIP1α functions as a selective endocytic adaptor for the internalization of synaptotagmin 1 at synapses” (Molecular Brain, 2019):

Biological target: T1, Recombinant human GST-Syt1-C2AB domain (human, UniProt P21579 81-422)
T1 construct: human synaptotagmin 1, cytoplasmic C2AB domains (C2A and C2B); Construct was a gift (Dr. Namgi Lee); also called C2AB fusion protein; GST-fused cytoplasmic (C2AB) domains of Syt1; not shown: GST, N-terminal, kept
Assay: pull-down; GST fusion protein on beads incubated with cleared extracts of transfected HEK293T cells (1 mg at 1 mg/ml) for 4 h at 4 °C; lysis buffer 20 mM Tris-HCl pH 8.0, 137 mM NaCl, 2 mM EDTA, 1% Triton X-100; bound proteins detected by immunoblot for HA
Settings: one partner purified

T1 sequence (P21579 81-422): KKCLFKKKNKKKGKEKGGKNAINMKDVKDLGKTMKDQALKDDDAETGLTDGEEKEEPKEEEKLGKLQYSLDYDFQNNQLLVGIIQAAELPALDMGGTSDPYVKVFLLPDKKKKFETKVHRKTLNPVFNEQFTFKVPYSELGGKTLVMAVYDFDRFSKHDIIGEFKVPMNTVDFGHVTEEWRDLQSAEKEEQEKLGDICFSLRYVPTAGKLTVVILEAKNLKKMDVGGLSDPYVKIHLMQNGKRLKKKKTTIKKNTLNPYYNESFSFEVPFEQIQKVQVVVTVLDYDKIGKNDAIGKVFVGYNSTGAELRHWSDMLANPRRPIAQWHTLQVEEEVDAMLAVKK

B1: HA-SGIP1α-mut (W771A/K781A) (natural protein, mouse, UniProt Q8VD37-6 1-854, looked up)
chain: MMEGLKKRTRKAFGIRKKEKDTDSTGSPDRDGMQGKKKAQKTQLLLTSCFWLRALSLTLSQQPSPHEPPYHSKAECAREGGKKASKKSNGAPNGFYAEIDWERYNSPELDEEGYSIRPEEPGSTKGKHFYSSSESEEEEESHKKFNIKIKPLQSKDVLKNAATVDELKASIGNIALSPSPVRKSPRRSPGAIKRNLSSEEVARPRRSTPTPELTSKKPLDDTLALAPLFGPPLESAFDEQKTEVLLDQPEIWGSGQPMNPSTESPELARPFPTGTPPPLPPKTVPATPPRTGSPLTVATGNDQAATEAKIEKLPSISDLDSIFGPVLSPKSVAVNTEEKWVHFSDASPEHVTPELTPREQVVTPPAASDIPADSPAPAPPGPTGSAGPPGPPGPRHVPSPLNLEEVQKKVAEQTFIKDDYLETLSSPKECGLGQRATPPPPPPPTYRTVVSSPGPGSGSGTGTTSGASSPARPATPLVPCSTTPPPPPPRPPSRPKLPPGKPGVGDVSRPFSPPIHSSSPPPIAPLARAESTSSISSTNSLSAATTPTVENEQPSLVWFDRGKFYLTFEGSSRGPSPLTMGAQDTLPVAAAFTETVNAYFKGADPSKCIVKITGEMVLSFPAGITRHFANNPSPAALTFRVVNSSRLEHVLPNPQLLCCDNTQNDANTKEFWVNMPNLMTHLKKVSEQKPQATYYNVDMLKYQVSAQGIQSTPLNLAVNWRCEPASTDLRIDYKYNTDAMSTAVALNNVQFLVPIDGGVTKLQAVLPPAVANAEQQRILWAIPDISQKSENGGVGSLLARFQLSEGPSKPSPLVVQFTSEGSTLSGCDIELVGAGYRFSLIKKRFAAGKYLADN
notes: numbers count on: SGIP1α (NM_001285852.1); Made by site-directed mutagenesis; also called HA-SGIP1α mutant W771A/K781A; W771A/K781A mutant; source: HEK293T, transfected, in lysate
Question: B1 was tested. Which “relative band intensity (SGIP1α = 1)” value did it give?
Answer: The value was 0.2 relative to SGIP1α.
